Assay results reported in patent US12115264B2, “Sterilization and filtration of peptide compositions” (3-D Matrix, Ltd., priority 2014, dated 2024).
Where no end group is shown, it is not given here.

Tests used:
Assay type in all cases: physicochemical
[1] = Apparent viscosity change after passage through membrane shear-thinning unit (container-inversion test)
Source text: The top row includes pictures of 2.5% KLD12 (SEQ ID NO:2). The bottom row includes pictures of 1.5% IEIK13 (SEQ ID NO:3). The solutions in the most left column stay on the top of the vials. The solutions in the most right column (after applying shear stress) have low viscosity, so that most materials are located at the bottom of vials.
To examine the effect of pore size in the shear-thinning unit on viscosity change of viscous peptide solutions, 2.5% KLD12 (SEQ ID NO:2) and 1.5% IEIK13 (SEQ ID NO:3) solutions were passed through selected pore sizes, and their apparent viscosity changes were evaluated. 2.5% KLD12 (SEQ ID NO:2) solutions passed through the shear-thinning unit with the pore sizes of 41 μm, 20 μm, and 5 μm.

[2] = Time sweep tests (rheological strength) before and after autoclave treatment; settings: time sweep test
Experimental: Rheological properties of certain peptide compositions were determined before and after autoclaving.

[3] = Storage modulus recovery after injection through 30-gauge needle
Experimental: RADA16 (SEQ ID NO:1) was injected through 30-gauge needle so that applied shear stress reduced stiffness of the peptides. The measurements were started 1 minute after the injection.
KLD12 (SEQ ID NO:2) was injected through 30-gauge needle so that the applied shear stress reduced stiffness of the peptides. The measurements were started 1 minute after the injection.
IEIK13 (SEQ ID NO:3) was injected through 30-gauge needle so that the applied shear stress reduced stiffness of the peptides. The measurements were started 1 minute after the injection.
The percentages of recovery back to the original storage modulus at 1 min and 20 min after injection peptide compositions through a 30 gauge needle are listed in Table 2. The recovery rate of IEIK13 (specifically, of a […]; SEQ ID NO:3) was the fastest among the peptide solutions, showing 100% recovery to the original storage modulus in 20 min. […] In some non-limiting embodiments, it may take about 12 to 48 hours for full recovery to an original modulus after passage through a needle (e.g., injection).
Rheological measurements were performed for RADA16 (SEQ ID NO:1) and IEIK13 (SEQ ID NO:3) solutions after injecting them through 30 gauge needles. […] The results are shown in FIG. 6 for RADA16 (SEQ ID NO:1), FIG. 7 for KLD12 (SEQ ID NO:2), and FIG. 8 for IEIK13 (SEQ ID NO:3).

[4] = Rheological properties of peptide solutions at selected concentrations; settings: for Loss Modulus (G″) / Storage Modulus (G′): at 1 Pa of oscillation stress; for Max. Viscosity (max η′): from viscosity plots at the range of measured stress
Experimental: Rheological properties were determined for a variety of peptide solutions. […] For example 2% KLD12 (SEQ ID NO:2), 2.5% KLD12 (SEQ ID NO:2), and 1.5% IEIK13 (SEQ ID NO:3) solutions have 2, 3.4, and 3.2 times higher maximum viscosities than 2.5% RADA16 (SEQ ID NO:1), respectively.

[5] = Shear flow test (rheometer DHR-1, 20 mm plates); settings: for yield stress (shear flow test): shear rate 0.003 to 1000
Experimental: Shear flow tests were performed on peptide solutions using a rheometer (DHR-1, TA Instruments) with 20 mm plates. Results are shown in FIG. 9 for 2.5% RADA16 (SEQ ID NO:1) solutions and FIG. 10 for 1.5% IEIK13 (SEQ ID NO:3) solutions. […] That is, as shear rate increased, their viscosities were dramatically dropped. […] The yield stress was about 40 Pa for 2.5% RADA16 (SEQ ID NO:1) solution and about 60 Pa for 1.5% IEIK13 (SEQ ID NO:3) solution.

[6] = 2.5%, 1 min after injection through 30-gauge needle
[7] = 2.5%, 20 min after injection through 30-gauge needle
[8] = 1%, 1 min after injection through 30-gauge needle
[9] = 1%, 20 min after injection through 30-gauge needle

Row | Substance | rheological strength after autoclaving versus non-autoclaved [2] | Storage modulus [3, 6] [Pa] | Storage modulus [3, 7] [Pa] | Storage modulus ([3]; 2.5%, Before injection) [Pa] | Yield Stress ([4]; Conc. 1%) [Pa] | Loss Modulus (G″) ([4]; Conc. 1%) [Pa] | Storage Modulus (G′) ([4]; Conc. 1%) [Pa] | Max. Viscosity (max η′) ([4]; Conc. 1%) [Pa · s] | Yield Stress ([4]; Conc. 1.5%) [Pa] | Loss Modulus (G″) ([4]; Conc. 1.5%) [Pa] | Storage Modulus (G′) ([4]; Conc. 1.5%) [Pa] | Max. Viscosity (max η′) ([4]; Conc. 1.5%) [Pa · s] | Loss Modulus (G″) ([4]; Conc. 2%) [Pa] | Storage Modulus (G′) ([4]; Conc. 2%) [Pa] | Yield Stress ([4]; Conc. 2.5%) [Pa] | Loss Modulus (G″) ([4]; Conc. 2.5%) [Pa] | Storage Modulus (G′) ([4]; Conc. 2.5%) [Pa] | Max. Viscosity (max η′) ([4]; Conc. 2.5%) [Pa · s] | Storage modulus [3, 8] [Pa] | Storage modulus [3, 9] [Pa] | further results
1 | Ile-Glu-Ile-Lys-Ile-Glu-Ile-Lys-Ile-Glu-Ile-Lys-Ile [IEIK13] | almost identical rheological strength | 632 | 2248 | 2213 | 39.8 | 77 | 719 | 12.9 | 50.1 | 94 | 1092 | 18.0 | 138 | 1708 | 100 | 174 | 2213 | 40.2 | – | – | apparent viscosity change after shear-thinning unit ([1]; 1.5% solution, membrane with a pore size of 5 μm): reduced significantly; times higher maximum viscosity than 2.5% RADA16 ([4]; 1.5% solution): 3.2 times; flow behaviour with increasing shear rate ([5]; 1.5% solution): typical shear thinning properties; yield stress (shear flow test) ([5]; 1.5% solution): about 60 Pa
2 | KLDLKLDLKLDL [KLD12, self-assembling peptide with repeats of KLDL, tested as solutions of 1 to 2.5%] | – | 57 | 196 | 846 | 25.1 | 25 | 140 | 2.0 | 39.8 | 46 | 292 | 7.1 | 63 | 573 | 100 | 93 | 846 | 19.0 | 0.68 | 59 | apparent viscosity change after shear-thinning unit ([1]; 2.5% solution, pore size of 120 μm): remained too viscous to flow down; apparent viscosity change after shear-thinning unit ([1]; 2.5% solution, pore sizes of 41 μm, 20 μm, and 5 μm): decreased enough to flow down; Storage modulus ([3]; 1%, Before injection): 140 Pa; times higher maximum viscosity than 2.5% RADA16 ([4]; 2% solution): 2 times; times higher maximum viscosity than 2.5% RADA16 ([4]; 2.5% solution): 3.4 times; Yield Stress ([4]; Conc. 2%): 79.4 Pa; Max. Viscosity (max η′) ([4]; Conc. 2%): 11.0 Pa · s
3 | Arg-Ala-Asp-Ala-Arg-Ala-Asp-Ala-Arg-Ala-Asp-Ala-Arg-Ala-Asp-Ala [RADA16] | dramatic decrease of rheological strength | 67 | 196 | 352 | 15.9 | 12 | 74 | 2.3 | 20.0 | 30 | 158 | 3.4 | 39 | 217 | 50.1 | 53 | 352 | 5.6 | 6.8 | 40 | Storage modulus ([3]; 1%, Before injection): 74 Pa; Yield Stress ([4]; Conc. 2%): 31.6 Pa; Max. Viscosity (max η′) ([4]; Conc. 2%): 4.0 Pa · s; flow behaviour with increasing shear rate ([5]; 2.5% solution): typical shear thinning properties; yield stress (shear flow test) ([5]; 2.5% solution): about 40 Pa
